This is an account of results in publication PMC4099074, “Palmitoylation of Gephyrin Controls Receptor Clustering and Plasticity of GABAergic Synapses” (PLoS Biology, 2014).

Values joined by “and” are separate entries in the source; they are usually repeats but may differ in a detail not shown here. Equal entries are not always repeated.

This data set concerns the molecule itself. As to the kind of experiment: SEC; lysates of control and 2-BP-treated primary hippocampal neurons; fifteen fractions immunoblotted for gephyrin and PSD-95; reference proteins for size. (SEC sorts molecules by how far they enter the pores of the column.)

B1: gephyrin, endogenous in primary hippocampal neurons (natural protein, UniProt Q8BUV3 1-769, looked up)
chain: MATEGMILTNHDHQIRVGVLTVSDSCFRNLAEDRSGINLKDLVQDPSLLGGTISAYKIVPDEIEEIKETLIDWCDEKELNLILTTGGTGFAPRDVTPEATKEVIEREAPGMALAMLMGSLNVTPLGMLSRPVCGIRGKTLIINLPGSKKGSQECFQFILPALPHAIDLLRDAIVKVKEVHDELEDLPSPPPPLSPPPTTSPHKQTEDKGVQCEEEEEEKKDSGVASTEDSSSSHITAAALAAKIPDSIISRGVQVLPRDTASLSTTPSESPRAQATSRLSTASCPTPKQIRRPDESKGVASRVGSLKARLPSCSSTYSVSEVQSRCSSKENILRASHSAVDITKVARRHRMSPFPLTSMDKAFITVLEMTPVLGTEIINYRDGMGRVLAQDVYAKDNLPPFPASVKDGYAVRAADGPGDRFIIGESQAGEQPTQTVMPGQVMRVTTGAPIPCGADAVVQVEDTELIRESDDGTEELEVRILVQARPGQDIRPIGHDIKRGECVLAKGTHMGPSEIGLLATVGVTEVEVNKFPVVAVMSTGNELLNPEDDLLPGKIRDSNRSTLLATIQEHGYPTINLGIVGDNPDDLLNALNEGISRADVIITSGGVSMGEKDYLKQVLDIDLHAQIHFGRVFMKPGLPTTFATLDIDGVRKIIFALPGNPVSAVVTCNLFVVPALRKMQGILDPRPTIIKARLSCDVKLDPRPEYHRCILTWHHQEPLPWAQSTGNQMSSRLMSMRSANGLLMLPPKTEQYVELHKGEVVDVMVIGRL
notes: gephyrin, endogenous; A fraction of it is palmitoylated on Cys212 and Cys284 (7.5% in mouse brain); also called native neuronal gephyrin; gephyrin (83 kDa); source: endogenous, lysates of primary hippocampal neurons (control and 2-BP-treated)
In general, stoichiometry N refers to the number of molecules, sites or subunits per partner or assembly. On to B1, for which the “stoichiometry N” value is 6 and 9.
